# From patent US20040175362A1
# Biological target: coxsackie-adenovirus receptor (CAR) (human) (UniProt P78310)
# Test: cell-based or functional assay
# Chain of UniProt P78310 (P78310 20-365): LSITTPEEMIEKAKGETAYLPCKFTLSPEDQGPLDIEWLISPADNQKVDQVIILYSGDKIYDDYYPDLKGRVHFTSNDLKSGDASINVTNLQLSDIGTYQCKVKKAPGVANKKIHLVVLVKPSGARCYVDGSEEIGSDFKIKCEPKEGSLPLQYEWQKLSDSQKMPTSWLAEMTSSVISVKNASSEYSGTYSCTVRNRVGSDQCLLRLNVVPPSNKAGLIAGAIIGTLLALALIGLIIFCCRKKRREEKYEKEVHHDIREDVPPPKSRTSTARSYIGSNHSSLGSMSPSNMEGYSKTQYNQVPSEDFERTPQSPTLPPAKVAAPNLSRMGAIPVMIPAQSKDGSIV
Substance,"gene transfer blocked by purified fiber knob, AdCMVLuc on SKOV3.1p1 cells [%]","luciferase activity blocked by recombinant Ad5 fiber knob, AdCMVLuc on 293 cells [%]","gene expression blocked by recombinant Ad5 fiber knob, Ad5lucRGD on 293 cells [%]","gene transfer blocked by knob protein, Ad5lucRGD on primary ovarian cancer cells, MOI 1 pfu/cell [%]","luciferase activity blocked by purified fiber knob, Ad5lucRGD on SKOV3.1p1 cells [%]"
wild type Ad5 fiber as carried by the virions of AdCMVLuc (from UniProt P11818 1-581),> 90,85 to 93,,,
RGD-modified Ad5 fiber (… in the HI loop of the knob) as carried by the virions of Ad5lucRGD (from UniProt P11818 1-546; P11818 547-581),,,40 to 60,20,20
